For 1 molecule, percent of total DHHC20-myc co-precipitated results are on record in PMC10622425.

The target of the assay is M2 protein of human Influenza A virus A/WSN/33 (H1N1), wild type (Influenza A virus A/WSN/33 (H1N1)). The assay can be described thus: co-IP.

B1: human DHHC20 fused at its C-terminus to a myc-tag (enzyme)
chain: TLWRCCQRVVGWVPVLFITFVVVWSYYAYVVELCVFTIFGNEENGKTVVYLVAFHLFFVMFVWSYWMTIFTSPASPSKEFYLSNSEKERYEKEFSQERQQEILRRAARALPIYTTSASKTIRYCEKCQLIKPDRAHHCSACDSCILKMDHHCPWVNNCVGFSNYKFFLLFLLYSLLYCLFVAATVLEYFIKFWTNELTDTRAKFHVLFLFFVSAMFFISVLSLFSYHCWLVGKNRTTIESFRAPTFSYGPDGNGFSLGCSKNWRQVFGDEKKYWLLPIFSSLGDGCSFPTRLVGM
For B1, the percent of total DHHC20-myc co-precipitated stood at 1%.
